Reference: PMC7399497, “The Dual PDZ Domain from Postsynaptic Density Protein 95 Forms a Scaffold with Peptide Ligand” (Biophysical Journal, 2020)

Assays:
Test in all cases: ITC; 5 mM RRESEI in the syringe, PDZ1-2, PDZ1 or PDZ2 in the cell at nominally 0.13 mM; 25°C; 20 mM Tris-HCl, 150 mM NaCl pH 8.5; single class of sites; Kd and N could not be refined independently
Conditions in all cases: both partners purified
PSD-95 PDZ1 domain = biological target: T1, PSD-95 PDZ1 domain (human, UniProt P78352 55-152)
T1 construct: Gly-Pro left at the N-terminus after HRV 3C cleavage of the tag; PSD-95, human, PDZ1, residues 55-152 of UniProt P78352 (98-195 of P78352-2); Glutathione was not used in the purification of the single domains; source: E. coli BL21(DE3), purified (Ni-NTA, HRV 3C tag cleavage, negative Ni-NTA, Superdex 200 SEC); not shown: His6, N-terminal, cleaved

PSD-95 PDZ2 domain = biological target: T2, PSD-95 PDZ2 domain (human, UniProt P78352 154-249)
T2 construct: Gly-Pro left at the N-terminus after HRV 3C cleavage of the tag; PSD-95, human, PDZ2, residues 154-249 of UniProt P78352 (197-292 of P78352-2); Glutathione was not used in the purification of the single domains; source: E. coli BL21(DE3), purified (Ni-NTA, HRV 3C tag cleavage, negative Ni-NTA, Superdex 200 SEC); not shown: His6, N-terminal, cleaved

[1] = biological target: T3, PSD-95 PDZ1-2 (dual PDZ domain of postsynaptic density protein 95) (human, UniProt P78352 55-249)
T3 construct: Gly-Pro left at the N-terminus after HRV 3C cleavage of the tag; PSD-95 (disks large homolog 4, SAP-90), human, residues 55-249 of UniProt P78352 (98-292 of P78352-2); PDZ1, linker and PDZ2; No Cys residues in the construct; also called apo-PDZ1-2; PDZ1-2 double domain; source: E. coli BL21(DE3), purified (Ni-NTA, HRV 3C tag cleavage, negative Ni-NTA, Superdex 200 SEC); not shown: His6, …
T3 sequence (P78352 other isoform, or with tags, fused parts or gaps): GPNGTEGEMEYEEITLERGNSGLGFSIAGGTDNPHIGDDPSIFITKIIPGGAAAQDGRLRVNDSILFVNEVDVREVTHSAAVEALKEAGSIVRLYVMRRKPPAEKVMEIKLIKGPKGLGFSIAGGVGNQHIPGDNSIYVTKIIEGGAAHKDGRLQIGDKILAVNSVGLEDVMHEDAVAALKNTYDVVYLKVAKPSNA

T2 sequence (P78352 other isoform, or with tags, fused parts or gaps): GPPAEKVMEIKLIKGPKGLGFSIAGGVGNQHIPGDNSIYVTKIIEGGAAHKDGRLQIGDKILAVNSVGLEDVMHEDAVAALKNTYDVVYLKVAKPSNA
T1 sequence (P78352 other isoform, or with tags, fused parts or gaps): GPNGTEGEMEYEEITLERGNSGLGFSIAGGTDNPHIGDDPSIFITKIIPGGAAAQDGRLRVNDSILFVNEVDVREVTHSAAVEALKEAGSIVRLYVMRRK

- Kd (PSD-95 PDZ1 domain): 6 ± 6 µM
- stoichiometry N (PSD-95 PDZ1 domain): 0.61 ± 0.08
- Kd (PSD-95 PDZ2 domain): 60 ± 2 µM
- stoichiometry N (PSD-95 PDZ2 domain): 0.19 ± 0.06
- Kd [1]: 90 ± 9 µM
- stoichiometry N [1]: 0.2 ± 0.07
B1: RRESEI peptide (last six residues, 422-427, of Kir2.1) (peptide)
peptide: RRESEI
notes: C-terminal six residues (422-427) of the inwardly rectifying potassium channel Kir2.1; also called RRESEI ligand; ligand peptide; source: synthetic peptide, 98% purity; bought: Peptide Protein Research
